Results taken from publication PMC2995173.

Biological target: HA-Rad18 S-Box-A (human) (UniProt Q9NS91)
Assay: co-IP

DNA Polymerase eta (Polη) (from UniProt Q9Y253 1-713) (natural protein)
percent reduction of association relative to Rad18 WT (UV-treated cells): > 80%
